Assay results as given in the supplement of paper PMC12667976.
± gives the standard error.

B1: library; numbered along this chain (parent)
chain: MATDAALRRLLRLHRTEIAVAVDSAFPLLHALADHDVVPEDKFQETLHLKEKEGCPQAFHALLSWLLTQDSTAILDFWRVLFKDYNLERYGRLQPILDSFPKDVDLSQPRKGRKPPAVPKALVPPPRLPTKRKASEEARAAAPAALTPRGTASPGSQLKAKPPKKPESSAEQQRLPLGNGIQTMSASVQRAVAMSSGDVPGARGAVEGILIQQVFESGGSKKCIQVGGEFYTPSKFEDSGSGKNKARSSSGPKPLVRAKGAQGAAPGGGEARLGQQGSVPAPLALPSDPQLHQKNEDECAVCRDGGELICCDGCPRAFHLACLSPPLREIPSGTWRCSSCLQATVQEVQPRAEEPRPQEPPVETPLPPGLRSAGEEVRGPPGEPLAGMDTTLVYKHLPAPPSAAPLPGLDSSALHPLLCVGPEGQQNLAPGARCGVCGDGTDVLRCTHCAAAFHWRCHFPAGTSRPGTGLRCRSCSGDVTPAPVEGVLAPSPARLAPGPAKDDTASHEPALHRDDLESLLSEHTFDGILQWAIQSMARPAAPFPS

Variants of: B1
Test: AIRE transcriptional activation functional score (insulin promoter-GFP; nonsense median 0, synonymous median 1) (normalised score); higher = higher AIRE activity (more reporter activation)
Settings: with insulin promoter-GFP reporter in HEK293
Procedure: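 Deep mutational scan of full-length human AIRE (codon-optimized cDNA, DT-POPCode NNN libraries over three regions) integrated at a Bxb1 landing pad in HEK293 cells carrying an insulin core promoter-GFP reporter at a Flp-In site. Cells were sorted for the top 10% GFP about 14 days after transfection. Variant frequency log-ratios (select vs non-select, TileSeq) were rescaled so that the nonsense median is 0 and the synonymous median is 1, then averaged over biological replicates.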

Point of comparison: V118R, “AIRE transcriptional activation functional score” value 0.372 ± 0.4. Against it:
- C437E — within error, 0.473 ± 0.29
- A134Y — within error, 0.952 ± 0.67
- L409P — higher, 1.25 ± 0.17
- L146C — within error, 0.639 ± 0.064
- K235P — higher, 1.43 ± 0.39
- E363N — higher, 1.09 ± 0.17
- E363T — higher, 1.29 ± 0.19
- K294M — within error, 0.969 ± 0.25
- G469A — within error, 0.409 ± 0.37
- P416H — within error, -0.0276 ± 0.2
- L47I — lower, -0.62 ± 0.23
- C449S — within error, -0.103 ± 0.24
- C449A — within error, -0.278 ± 0.3
- E383Q — within error, 0.74 ± 0.27
- Y90L — within error, 0.0613 ± 0.22
- Y90W — lower, -0.215 ± 0.059
- A489W — higher, 0.893 ± 0.068
- R336C — higher, 1.2 ± 0.12
- P315M — higher, 1.22 ± 0.04
- L291S — within error, 1.1 ± 0.44
- L291F — higher, 1.15 ± 0.22
- P422C — higher, 1.28 ± 0.091
- P422D — higher, 1.69 ± 0.09
- P422L — higher, 1.3 ± 0.4
- Q342H — within error, 0.916 ± 0.16
- V118N — within error, 0.783 ± 0.28
- S506R — within error, 0.768 ± 0.15
- K133Y — within error, -0.0322 ± 0.21
- D4N — within error, 0.245 ± 0.27
- D4L — within error, 0.0531 ± 0.29
- G208C — within error, 0.43 ± 0.077
- L385Y — higher, 1.34 ± 0.17
- V377D — within error, 0.248 ± 0.3
- F100T — lower, -2.46 ± 0.24
- S153C — higher, 1.2 ± 0.24
- S153H — higher, 1.41 ± 0.56
- S332D — within error, 0.652 ± 0.32
- L177F — higher, 1.5 ± 0.34
- G91W — higher, 1.54 ± 0.096
- L308H — higher, 1.33 ± 0.081
- V443Q — within error, 0.368 ± 0.051
- S187E — within error, 0.48 ± 0.074
- T147P — within error, 0.125 ± 0.5
- H292V — within error, 0.936 ± 0.42
- K120R — higher, 1.21 ± 0.41
- K120T — higher, 1.79 ± 0.48
- K120N — higher, 1.29 ± 0.21
- G112E — higher, 1.23 ± 0.084
- A493S — higher, 1.29 ± 0.14
- F459K — within error, 0.78 ± 0.18
- K164T — within error, 0.821 ± 0.83
- V104N — within error, -0.244 ± 0.28
- P163Y — higher, 1.53 ± 0.24
- W531S — within error, 0.218 ± 0.14
- S518N — within error, 0.216 ± 0.021
- S518W — higher, 0.848 ± 0.04
- D526Y — higher, 1.02 ± 0.14
- R8T — within error, -0.0815 ± 0.38
- R257V — within error, 0.256 ± 0.14
- P129H — within error, -0.142 ± 0.24
- L529P — lower, -0.359 ± 0.12
- S249M — higher, 1.28 ± 0.083
- S249L — within error, 0.67 ± 0.15
- R110A — higher, 1.41 ± 0.049
- P286R — within error, 1.17 ± 0.44
- A399K — within error, 0.799 ± 0.062
- A399S — within error, 0.793 ± 0.36
- A510I — lower, -0.237 ± 0.11
- A510F — within error, 0.578 ± 0.11
- I74L — within error, 0.0101 ± 0.28
- P126W — within error, 0.0843 ± 0.12
- A403I — higher, 1.5 ± 0.21
- A496C — higher, 1.01 ± 0.14
- Q189R — within error, 0.813 ± 0.21
- P254F — within error, 0.266 ± 0.23
- P254M — within error, 0.826 ± 0.054
- E376R — higher, 1.12 ± 0.2
- L210F — higher, 1.01 ± 0.14
- C340M — higher, 1.61 ± 0.023
- A413P — within error, 0.731 ± 0.39
- A413Y — higher, 1.25 ± 0.14
- L158H — within error, 0.949 ± 0.3
- L158V — within error, 0.815 ± 0.39
